B1: Photozipper variant E159K (domain or fragment)
chain: GSISSELTEAQKVERRERNREHAKRSRVRKKFLLESLQQSVNELNHKNNSLKESIREHLGPRGDSLIAQSSPEADTLLTDNPSKANRILEDPDYSLVKALQMAQQNFVITDASLPDNPIVYASRGFLTLTGYSLDQILGRNCRFLQGPETDPRAVDKIRNAITKGVDTSVCLLNYRQDGTTFWNLFFVAGLRDSKGNIVNYVGVQSKVSEDYAKLLVNEQNIEYKGVRTSNMLRRK
B2: Photozipper variant E159R/K164R (domain or fragment)
chain: GSISSELTEAQKVERRERNREHAKRSRVRKKFLLESLQQSVNELNHRNNSLRESIREHLGPRGDSLIAQSSPEADTLLTDNPSKANRILEDPDYSLVKALQMAQQNFVITDASLPDNPIVYASRGFLTLTGYSLDQILGRNCRFLQGPETDPRAVDKIRNAITKGVDTSVCLLNYRQDGTTFWNLFFVAGLRDSKGNIVNYVGVQSKVSEDYAKLLVNEQNIEYKGVRTSNMLRRK
B3: Photozipper variant K164E (domain or fragment)
chain: GSISSELTEAQKVERRERNREHAKRSRVRKKFLLESLQQSVNELNHENNSLEESIREHLGPRGDSLIAQSSPEADTLLTDNPSKANRILEDPDYSLVKALQMAQQNFVITDASLPDNPIVYASRGFLTLTGYSLDQILGRNCRFLQGPETDPRAVDKIRNAITKGVDTSVCLLNYRQDGTTFWNLFFVAGLRDSKGNIVNYVGVQSKVSEDYAKLLVNEQNIEYKGVRTSNMLRRK

Target: the molecule itself
Experiment: SEC

| Protein | stoichiometry N |
| --- | --- |
| B1 | 2 |
| B2 | 2 |
| B3 | 2 |
